Data set [1] addresses T1, RTEL1∆762 (human, UniProt Q9NZ71-6 762-1300).
T1 sequence: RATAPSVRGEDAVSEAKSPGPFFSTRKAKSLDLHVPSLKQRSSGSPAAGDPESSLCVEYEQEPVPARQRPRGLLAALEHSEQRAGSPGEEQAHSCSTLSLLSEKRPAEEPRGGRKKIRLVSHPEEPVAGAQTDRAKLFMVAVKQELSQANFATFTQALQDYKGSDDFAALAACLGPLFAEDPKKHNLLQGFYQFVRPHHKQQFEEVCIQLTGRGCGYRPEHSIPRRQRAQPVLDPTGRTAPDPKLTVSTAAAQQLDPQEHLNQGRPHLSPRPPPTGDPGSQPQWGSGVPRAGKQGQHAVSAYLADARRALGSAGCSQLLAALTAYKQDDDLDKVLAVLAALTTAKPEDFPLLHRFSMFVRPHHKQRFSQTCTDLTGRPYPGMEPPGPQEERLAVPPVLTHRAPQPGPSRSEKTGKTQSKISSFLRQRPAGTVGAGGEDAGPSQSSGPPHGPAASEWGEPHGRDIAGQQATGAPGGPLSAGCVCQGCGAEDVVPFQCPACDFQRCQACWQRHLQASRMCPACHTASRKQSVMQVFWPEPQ
As to the kind of experiment: fluorescence anisotropy; RNA folded in 0 mM KCl; 20 mM Tris pH 7.5, 50 mM KCl, 0.5 mM TCEP, 0.5 mM MgCl2, 10% glycerol, 0.1% IGEPAL, room temperature 30 min; oligos refolded in 10 mM Tris pH 7.5, 100 mM KCl; EMSA legends give 150 or 300 mM KCl. Conditions: protein: recombinant; tags: 6xHis; chain copies: 2; label: 5' fluorescein; no G4 (folded without KCl). (Polarisation of emitted light reports the rotation of a fluorescent probe.)

The target in data set [2] is T1, RTEL1∆762. As to the kind of experiment: fluorescence anisotropy; 20 mM Tris pH 7.5, 50 mM KCl, 0.5 mM TCEP, 0.5 mM MgCl2, 10% glycerol, 0.1% IGEPAL, room temperature 30 min; oligos refolded in 10 mM Tris pH 7.5, 100 mM KCl; EMSA legends give 150 or 300 mM KCl. Conditions: protein: recombinant, tags: 6xHis, chain copies: 2, label: 5' fluorescein.
The target of data set [3] is T1, RTEL1∆762. As to the kind of experiment: fluorescence anisotropy; RNA folded in 100 mM KCl; 20 mM Tris pH 7.5, 50 mM KCl, 0.5 mM TCEP, 0.5 mM MgCl2, 10% glycerol, 0.1% IGEPAL, room temperature 30 min; oligos refolded in 10 mM Tris pH 7.5, 100 mM KCl; EMSA legends give 150 or 300 mM KCl. Conditions: protein: recombinant; tags: 6xHis; chain copies: 2; label: 5' fluorescein; no G4.

Data set [4] concerns the target T2, RTEL1∆762R1264H (human, UniProt Q9NZ71-6 762-1300, R1264H).
T2 sequence: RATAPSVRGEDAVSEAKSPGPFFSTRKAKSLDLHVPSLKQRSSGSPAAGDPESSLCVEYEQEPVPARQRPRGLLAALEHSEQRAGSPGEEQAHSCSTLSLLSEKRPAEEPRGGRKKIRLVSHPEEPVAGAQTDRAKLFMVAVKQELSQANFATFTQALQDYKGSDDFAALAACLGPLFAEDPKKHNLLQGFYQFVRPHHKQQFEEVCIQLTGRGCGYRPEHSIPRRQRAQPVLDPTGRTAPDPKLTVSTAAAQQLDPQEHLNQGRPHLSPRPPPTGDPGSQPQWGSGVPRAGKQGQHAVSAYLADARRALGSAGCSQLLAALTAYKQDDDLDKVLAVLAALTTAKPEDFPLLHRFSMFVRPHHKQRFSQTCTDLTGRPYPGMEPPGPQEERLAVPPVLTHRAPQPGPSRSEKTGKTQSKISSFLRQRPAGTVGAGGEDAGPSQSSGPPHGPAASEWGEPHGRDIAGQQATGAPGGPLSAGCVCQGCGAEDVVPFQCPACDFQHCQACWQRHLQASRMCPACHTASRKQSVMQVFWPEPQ
As to the kind of experiment: competition (fluorescence anisotropy); vs FAM-TERRA-MUT, 200 nM; 20 mM Tris pH 7.5, 50 mM KCl, 0.5 mM TCEP, 0.5 mM MgCl2, 10% glycerol, 0.1% IGEPAL, room temperature 30 min; oligos refolded in 10 mM Tris pH 7.5, 100 mM KCl; EMSA legends give 150 or 300 mM KCl. Conditions: protein: recombinant, tags: 6xHis. On the technique in general: A gel shift assay detects complexes by their altered migration in electrophoresis.

Data set [5] has as its target T1, RTEL1∆762. Described as above. Conditions: protein: recombinant, tags: 6xHis, chain copies: 2.
Data set [6] has as its target T3, RTEL1∆762-1097 (human, UniProt Q9NZ71-6 762-1097).
T3 sequence: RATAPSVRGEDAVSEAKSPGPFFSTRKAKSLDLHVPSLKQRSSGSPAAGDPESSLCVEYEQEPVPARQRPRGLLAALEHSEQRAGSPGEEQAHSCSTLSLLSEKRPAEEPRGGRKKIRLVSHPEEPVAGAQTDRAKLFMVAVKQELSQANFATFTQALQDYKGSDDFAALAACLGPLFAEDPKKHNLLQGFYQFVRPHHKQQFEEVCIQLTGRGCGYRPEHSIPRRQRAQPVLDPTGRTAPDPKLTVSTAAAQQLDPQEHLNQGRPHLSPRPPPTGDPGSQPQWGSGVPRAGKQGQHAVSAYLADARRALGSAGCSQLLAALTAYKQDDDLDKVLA
The data set is described as above. Conditions: protein: recombinant, tags: 6xHis.

For data set [7], the target named is T2, RTEL1∆762R1264H. As to the kind of experiment: competition (fluorescence anisotropy); vs FAM-TERRA-MUT, 1 uM; 20 mM Tris pH 7.5, 50 mM KCl, 0.5 mM TCEP, 0.5 mM MgCl2, 10% glycerol, 0.1% IGEPAL, room temperature 30 min; oligos refolded in 10 mM Tris pH 7.5, 100 mM KCl; EMSA legends give 150 or 300 mM KCl. Conditions: protein: recombinant, tags: 6xHis.
Data set [8] has as its target T1, RTEL1∆762. The description is as above. Conditions: protein: recombinant, tags: 6xHis, chain copies: 2.
The target in data set [9] is T3, RTEL1∆762-1097. The description is as above. Conditions: protein: recombinant, tags: 6xHis.
The target in a further data set is T4, RTEL1∆1143 (human, UniProt Q9NZ71-6 1143-1300).
T4 sequence: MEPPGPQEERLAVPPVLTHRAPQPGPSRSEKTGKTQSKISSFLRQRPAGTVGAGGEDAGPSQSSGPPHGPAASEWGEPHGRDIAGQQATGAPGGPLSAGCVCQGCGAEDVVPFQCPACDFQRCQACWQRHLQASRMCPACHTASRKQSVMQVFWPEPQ
As to the kind of experiment: EMSA; negligible at 5 uM protein; 150 mM KCl; 20 mM Tris pH 7.5, 50 mM KCl, 0.5 mM TCEP, 0.5 mM MgCl2, 10% glycerol, 0.1% IGEPAL, room temperature 30 min; oligos refolded in 10 mM Tris pH 7.5, 100 mM KCl; EMSA legends give 150 or 300 mM KCl. Conditions: protein: recombinant; tags: 6xHis; label: 5' fluorescein; G4.

The target of data set [10] is T1, RTEL1∆762. As to the kind of experiment: fluorescence anisotropy; RNA folded in 100 mM KCl; text: <10 nM, at detection limit; 20 mM Tris pH 7.5, 50 mM KCl, 0.5 mM TCEP, 0.5 mM MgCl2, 10% glycerol, 0.1% IGEPAL, room temperature 30 min; oligos refolded in 10 mM Tris pH 7.5, 100 mM KCl; EMSA legends give 150 or 300 mM KCl. Conditions: protein: recombinant; tags: 6xHis; chain copies: 2; label: 5' fluorescein; G4.

Data set [11] deals with the molecule itself. As to the kind of experiment: SEC-MALS; 200-300 µg protein on Superdex 200 10/300 GL, 0.3 ml per minute, 50 mM Hepes pH 7.5, 1 mM TCEP, 150 or 300 mM NaCl; dimer to monomers. For orientation: Size exclusion chromatography separates by hydrodynamic size, large species first.

On to UUAGGGUUAGGGUUAGGGUUAGGG (ssRNA) [TERRA (FAM), not folded (0 mM KCl)], for which the equilibrium dissociation constant (Kd) (in general, the free concentration of one partner at which half of the binding sites on the other are occupied at equilibrium, for simple one-to-one binding) with RTEL1∆762 [1] came to 37.1 ± 9.6 nM.
Turning to AAAAAAAAAAAAAAAAAAAAAAAA (ssRNA) [Poly A 24mer], in the data set with RTEL1∆762 [2], the Kd came to 498 ± 47.8 nM.
UUACCGUUACCGUUACCGUUACCG (ssRNA) [TERRA-MUT (FAM)]: the Kd with RTEL1∆762 [3] came to 108 ± 21.6 nM.
For the molecule GGTTACCGTTACCGTTACCGTTACCGTTAG (ssDNA) [hTelo-MUT], the Ki (commonly a measure of affinity in units of concentration, obtained from inhibition or displacement) with RTEL1∆762R1264H [4] (no G4) was found to be 309 ± 68 nM; with RTEL1∆762 [5] (no G4), 93 ± 11 nM; with RTEL1∆762-1097 [6] (no G4), 826 ± 134 nM; with RTEL1∆762R1264H [7] (no G4) it was 1750 ± 520 nM; with RTEL1∆762 [8] (no G4) it was 420 ± 140 nM; with RTEL1∆762-1097 [9] (no G4) it was 12600 ± 8470 nM.
For the molecule UUAGGGUUAGGGUUAGGGUUAGGG (structured_RNA) [TERRA (FAM), folded in KCl], in the data set with RTEL1∆1143, the binding result is listed as “no binding”. In addition, the Kd with RTEL1∆762 [10] was determined as 1.3 ± 3.6 nM.
In the case of GGTTAGGGTTAGGGTTAGGGTTAGGGTTAG (structured_DNA) [hTelo], the Ki with RTEL1∆762R1264H [4] (G4) was found to be 47 ± 9 nM; with RTEL1∆762 [5] (G4), 29 ± 4 nM; with RTEL1∆762-1097 [6] (G4) it was 276 ± 39 nM; with RTEL1∆762R1264H [7] (G4) it was 212 ± 17 nM; with RTEL1∆762 [8] (G4), 74 ± 12 nM; with RTEL1∆762-1097 [9] (G4), 1720 ± 302 nM.
Turning to UUAGGGUUAGGGUUAGGGUUAGGG (structured_RNA) [TERRA competitor], the Ki with RTEL1∆762R1264H [4] (G4) came to 30 ± 7 nM; with RTEL1∆762 [5] (G4) it was 17 ± 3 nM; with RTEL1∆762-1097 [6] (G4), 245 ± 35 nM; with RTEL1∆762R1264H [7] (G4), 107 ± 14 nM; with RTEL1∆762 [8] (G4), 29 ± 4 nM; with RTEL1∆762-1097 [9] (G4), 978 ± 84 nM.

B1: RTEL1^∆762 (human RTEL1 residues 762-1300, lacks the helicase domain) (domain or fragment, UniProt Q9NZ71-6 762-1300, looked up)
chain: RATAPSVRGEDAVSEAKSPGPFFSTRKAKSLDLHVPSLKQRSSGSPAAGDPESSLCVEYEQEPVPARQRPRGLLAALEHSEQRAGSPGEEQAHSCSTLSLLSEKRPAEEPRGGRKKIRLVSHPEEPVAGAQTDRAKLFMVAVKQELSQANFATFTQALQDYKGSDDFAALAACLGPLFAEDPKKHNLLQGFYQFVRPHHKQQFEEVCIQLTGRGCGYRPEHSIPRRQRAQPVLDPTGRTAPDPKLTVSTAAAQQLDPQEHLNQGRPHLSPRPPPTGDPGSQPQWGSGVPRAGKQGQHAVSAYLADARRALGSAGCSQLLAALTAYKQDDDLDKVLAVLAALTTAKPEDFPLLHRFSMFVRPHHKQRFSQTCTDLTGRPYPGMEPPGPQEERLAVPPVLTHRAPQPGPSRSEKTGKTQSKISSFLRQRPAGTVGAGGEDAGPSQSSGPPHGPAASEWGEPHGRDIAGQQATGAPGGPLSAGCVCQGCGAEDVVPFQCPACDFQRCQACWQRHLQASRMCPACHTASRKQSVMQVFWPEPQ
notes: residue numbers run to 1300; Cloned between EcoRI and XhoI of pET28; expected monomer mass printed as 62 kDa; source: E. coli BL21, purified (His-trap, Hi-Trap Q, Superdex 200)
Take B1: in [11], the stoichiometry N (as a rule, a count of units in the complex or per binding partner) turned out to be 2.
For the molecule AUUAUUAUUAUUAUUAUUAUUAUU (ssRNA) [AU-rich 24mer], the Kd in the data set with RTEL1∆762 [2] (unstructured) is 42 ± 6.1 nM.

The values are drawn from paper PMC8140157, “RTEL1 influences the abundance and localization of TERRA RNA” (Nature Communications, 2020).
